Results on two molecules are retold here after patent US20090221691A1 (UNIVERSITY OF ROCHESTER, published 2009).

The target in assay [1] is biotinylated Gβ1γ2 mutant Arg314Ala (rat) (UniProt P54311). Nature of the assay: phage ELISA, % of wild-type b-βγ.
In assay [2] the target is biotinylated Gβ1γ2 mutant Asn230Ala (rat) (UniProt P54311). Nature of the assay: phage ELISA, % of wild-type b-βγ.
Assay [3] deals with biotinylated Gβ1γ2 mutant Asp246Ser (rat) (UniProt P54311). In words: phage ELISA, % of wild-type b-βγ.
For assay [4], the target named is biotinylated Gβ1γ2 mutant His311Ala (rat) (UniProt P54311). Nature of the assay: phage ELISA, % of wild-type b-βγ.
The target in assay [5] is biotinylated Gβ1γ2 mutant His62Ala (rat) (UniProt P54311). In words: phage ELISA, % of wild-type b-βγ.
Assay [6] addresses biotinylated Gβ1γ2 mutant Leu117Ala (rat) (UniProt P54311). Nature of the assay: phage ELISA, % of wild-type b-βγ.
Assay [7] concerns the target biotinylated Gβ1γ2 mutant Lys57Ala (rat) (UniProt P54311). In words: phage ELISA, % of wild-type b-βγ.
Assay [8] concerns the target biotinylated Gβ1γ2 mutant Met101Ala (rat) (UniProt P54311). Nature of the assay: phage ELISA, % of wild-type b-βγ.
For assay [9], the target named is biotinylated Gβ1γ2 mutant Met188Ala (rat) (UniProt P54311). In words: phage ELISA, % of wild-type b-βγ.
In assay [10] the target is biotinylated Gβ1γ2 mutant Phe292Ala (rat) (UniProt P54311). In words: phage ELISA, % of wild-type b-βγ.
Assay [11] concerns the target biotinylated Gβ1γ2 mutant Trp332Ala (rat) (UniProt P54311). In words: phage ELISA, % of wild-type b-βγ.
Assay [12] addresses biotinylated Gβ1γ2 mutant Trp99Ala (rat) (UniProt P54311). In words: phage ELISA, % of wild-type b-βγ.
Assay [13] has as its target biotinylated Gβ1γ2 mutant Tyr145Ala (rat) (UniProt P54311). In words: phage ELISA, % of wild-type b-βγ.
Assay [14] addresses T1, biotinylated Gβ1γ2, wild-type (BAP-rat Gβ1 with Gγ2) (rat, UniProt P54311 1-340; P63212 2-68, biotin on the lysine acceptor residue of the BAP).
T1 construct: immobilized on streptavidin in the assays; also called b-βγ; b-Gβ1γ2; not shown: 20 amino acid biotin acceptor peptide (BAP) fused to the N-terminus
In words: flow cytometry competition, blocking Gα-Gβγ interactions. The method, then:
Assays were used to determine peptide effects on Gα-Gβγ interactions included competition and dissociation assays (Ghosh, et al. (2003) supra). […] The bead-associated fluorescence was then recorded in a BD Biosciences FACSCALIBUR™ flow cytometer. Data was corrected for background fluorescence and fit with a sigmoid dose response curve using Graph Pad Prism 4.

With phage displaying SIGK peptide, the % of Wild-Type Signal in assay [1] was determined as 50.2%; in assay [2] it was 22.4%; in [3], 66.5%; in [4], 94.3%; in assay [5] it was 111%; in assay [6], 2.1%. Further, the % of Wild-Type Signal is 18.6% in assay [7]; 32.2% in assay [8]; 2.5% in assay [9]; 109% in assay [10]; 7.1% in assay [11]; 66% in assay [12]. The molecule also yielded a % of Wild-Type Signal in [13] of 0.8%.

SIRKALNILAYPDYD (Free peptide) [SIRK(Gly10Ala)] had an IC50 in assay [14] of roughly 80 µM.
